In paper PMC5479831, “Semi-rational engineering of a thermostable aldo–keto reductase from Thermotoga maritima for synthesis of enantiopure ethyl-2-hydroxy-4-phenylbutyrate (EHPB)” (Scientific Reports, 2017):

target: T1, Tm1743 (Thermotoga maritima, UniProt Q9X265); assay: X-ray crystal structure, […] Å; conditions: co-crystallised, protein:NADP+ 1:1.5 molar; cofactor binding site
T1 construct: gene TM_1743

| Molecule | X-ray crystal structure, 2.0 Å |
| --- | --- |
| NC(=O)c1ccc[n+]([C@@H]2O[C@H](COP(=O)(O)OP(=O)(O)OC[C@H]3O[C@@H](n4cnc5c(N)ncnc54)[C@H](OP(=O)(O)O)[C@@H]3O)[C@@H](O)[C@H]2O)c1 [NADP^+] | we crystallized Tm1743 in complex with the cofactor NADP^+ |

substrate: CCOC(=O)C(=O)CCc1ccccc1; assay: purified protein; type: biochemical, Thermotoga maritima; conditions: apparent, 0.25 mM NADPH, 50 mM potassium phosphate pH 6.5, 35 °C, 30 mM DMSO

| Molecule | Km [µM] | kcat [s⁻¹] | kcat/Km [M⁻¹ s⁻¹] |
| --- | --- | --- | --- |
| Tm1743 (Thermotoga maritima MSB8) (protein) MLYKELGRTGEEIPALGLGTWGIGGFETPDYSRDEEMVELLKTAIKMGYTHIDTAEYYGGGHTEELIGKAIKDFRREDLFIVSKVWPTHLRRDDLLRSLENTLKRLDTDYVDLYLIHWPNPEIPLEETLSAMAEGVRQGLIRYIGVSNFDRRLLEEAISKSQEPIVCDQVKYNIEDRDPERDGLLEFCQKNGVTLVAYSPLRRTLLSEKTKRTLEEIAKNHGATIYQIMLAWLLAKPNVVAIPKAGRVEHLRENLKATEIKLSEEEMKLLDSLG | 1100 ± 40 | 1.96 ± 0.02 | 1780 ± 30 |
| Tm1743 (Thermotoga maritima MSB8; W118E/W21L) (protein) MLYKELGRTGEEIPALGLGTLGIGGFETPDYSRDEEMVELLKTAIKMGYTHIDTAEYYGGGHTEELIGKAIKDFRREDLFIVSKVWPTHLRRDDLLRSLENTLKRLDTDYVDLYLIHEPNPEIPLEETLSAMAEGVRQGLIRYIGVSNFDRRLLEEAISKSQEPIVCDQVKYNIEDRDPERDGLLEFCQKNGVTLVAYSPLRRTLLSEKTKRTLEEIAKNHGATIYQIMLAWLLAKPNVVAIPKAGRVEHLRENLKATEIKLSEEEMKLLDSLG | 10530 ± 100 | 1.98 ± 0.02 | 190 ± 10 |
| Tm1743 (Thermotoga maritima MSB8; W21S/W86N) (protein) MLYKELGRTGEEIPALGLGTSGIGGFETPDYSRDEEMVELLKTAIKMGYTHIDTAEYYGGGHTEELIGKAIKDFRREDLFIVSKVNPTHLRRDDLLRSLENTLKRLDTDYVDLYLIHWPNPEIPLEETLSAMAEGVRQGLIRYIGVSNFDRRLLEEAISKSQEPIVCDQVKYNIEDRDPERDGLLEFCQKNGVTLVAYSPLRRTLLSEKTKRTLEEIAKNHGATIYQIMLAWLLAKPNVVAIPKAGRVEHLRENLKATEIKLSEEEMKLLDSLG | 1620 ± 20 | 0.84 ± 0.01 | 510 ± 20 |
| Tm1743 (Thermotoga maritima MSB8; W118H/W21L) (protein) MLYKELGRTGEEIPALGLGTLGIGGFETPDYSRDEEMVELLKTAIKMGYTHIDTAEYYGGGHTEELIGKAIKDFRREDLFIVSKVWPTHLRRDDLLRSLENTLKRLDTDYVDLYLIHHPNPEIPLEETLSAMAEGVRQGLIRYIGVSNFDRRLLEEAISKSQEPIVCDQVKYNIEDRDPERDGLLEFCQKNGVTLVAYSPLRRTLLSEKTKRTLEEIAKNHGATIYQIMLAWLLAKPNVVAIPKAGRVEHLRENLKATEIKLSEEEMKLLDSLG | 15980 ± 200 | 1.98 ± 0.01 | 120 ± 10 |
| Tm1743 (Thermotoga maritima MSB8; W21S/W86E) (protein) MLYKELGRTGEEIPALGLGTSGIGGFETPDYSRDEEMVELLKTAIKMGYTHIDTAEYYGGGHTEELIGKAIKDFRREDLFIVSKVEPTHLRRDDLLRSLENTLKRLDTDYVDLYLIHWPNPEIPLEETLSAMAEGVRQGLIRYIGVSNFDRRLLEEAISKSQEPIVCDQVKYNIEDRDPERDGLLEFCQKNGVTLVAYSPLRRTLLSEKTKRTLEEIAKNHGATIYQIMLAWLLAKPNVVAIPKAGRVEHLRENLKATEIKLSEEEMKLLDSLG | 1250 ± 20 | 1.01 ± 0.01 | 810 ± 20 |
